Results from patent US20030100489.

Tested on: p16

In the case of CDK2, the “RB phosphorylation by CDK2-cyclin D2 complexes” value is reported as “No inhibition was observed when CDK2-cyclin D2 complexes were used in a similar assay”.
